Laboratory results reported in patent US20150291677A1.

Target: Mouse FGFR4/β-klotho complex co-expressed in rat L6 myoblast cells (mouse) (UniProt Q03142)
Assay: cell-based or functional assay

Chain of Mouse FGFR4/β-klotho complex co-expressed in rat L6 myoblast cells (mouse) (Q03142 17-799, chain 1 of 2): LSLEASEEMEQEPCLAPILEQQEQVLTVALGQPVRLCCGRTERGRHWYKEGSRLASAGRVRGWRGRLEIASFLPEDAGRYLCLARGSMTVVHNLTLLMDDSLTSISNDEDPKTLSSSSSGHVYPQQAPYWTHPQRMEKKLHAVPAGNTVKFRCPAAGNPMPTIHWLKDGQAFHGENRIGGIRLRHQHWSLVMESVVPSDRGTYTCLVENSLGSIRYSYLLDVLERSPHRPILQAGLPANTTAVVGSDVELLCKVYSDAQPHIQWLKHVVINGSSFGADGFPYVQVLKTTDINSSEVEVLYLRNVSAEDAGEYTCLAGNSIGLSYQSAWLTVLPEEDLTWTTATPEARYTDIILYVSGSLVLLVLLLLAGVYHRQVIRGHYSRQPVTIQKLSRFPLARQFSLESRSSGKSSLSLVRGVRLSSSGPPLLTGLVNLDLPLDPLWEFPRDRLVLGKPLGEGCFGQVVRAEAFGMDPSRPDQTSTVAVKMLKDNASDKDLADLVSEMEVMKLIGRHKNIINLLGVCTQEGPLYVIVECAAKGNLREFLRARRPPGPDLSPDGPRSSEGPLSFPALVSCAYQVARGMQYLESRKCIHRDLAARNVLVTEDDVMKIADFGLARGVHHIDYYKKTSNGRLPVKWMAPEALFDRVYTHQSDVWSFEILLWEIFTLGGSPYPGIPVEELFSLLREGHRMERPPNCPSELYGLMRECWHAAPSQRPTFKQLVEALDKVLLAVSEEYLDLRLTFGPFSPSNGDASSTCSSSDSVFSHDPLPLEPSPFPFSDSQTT
Chain of Mouse FGFR4/β-klotho complex co-expressed in rat L6 myoblast cells (mouse) (Q99N32 whole entry, chain 2 of 2, further chain): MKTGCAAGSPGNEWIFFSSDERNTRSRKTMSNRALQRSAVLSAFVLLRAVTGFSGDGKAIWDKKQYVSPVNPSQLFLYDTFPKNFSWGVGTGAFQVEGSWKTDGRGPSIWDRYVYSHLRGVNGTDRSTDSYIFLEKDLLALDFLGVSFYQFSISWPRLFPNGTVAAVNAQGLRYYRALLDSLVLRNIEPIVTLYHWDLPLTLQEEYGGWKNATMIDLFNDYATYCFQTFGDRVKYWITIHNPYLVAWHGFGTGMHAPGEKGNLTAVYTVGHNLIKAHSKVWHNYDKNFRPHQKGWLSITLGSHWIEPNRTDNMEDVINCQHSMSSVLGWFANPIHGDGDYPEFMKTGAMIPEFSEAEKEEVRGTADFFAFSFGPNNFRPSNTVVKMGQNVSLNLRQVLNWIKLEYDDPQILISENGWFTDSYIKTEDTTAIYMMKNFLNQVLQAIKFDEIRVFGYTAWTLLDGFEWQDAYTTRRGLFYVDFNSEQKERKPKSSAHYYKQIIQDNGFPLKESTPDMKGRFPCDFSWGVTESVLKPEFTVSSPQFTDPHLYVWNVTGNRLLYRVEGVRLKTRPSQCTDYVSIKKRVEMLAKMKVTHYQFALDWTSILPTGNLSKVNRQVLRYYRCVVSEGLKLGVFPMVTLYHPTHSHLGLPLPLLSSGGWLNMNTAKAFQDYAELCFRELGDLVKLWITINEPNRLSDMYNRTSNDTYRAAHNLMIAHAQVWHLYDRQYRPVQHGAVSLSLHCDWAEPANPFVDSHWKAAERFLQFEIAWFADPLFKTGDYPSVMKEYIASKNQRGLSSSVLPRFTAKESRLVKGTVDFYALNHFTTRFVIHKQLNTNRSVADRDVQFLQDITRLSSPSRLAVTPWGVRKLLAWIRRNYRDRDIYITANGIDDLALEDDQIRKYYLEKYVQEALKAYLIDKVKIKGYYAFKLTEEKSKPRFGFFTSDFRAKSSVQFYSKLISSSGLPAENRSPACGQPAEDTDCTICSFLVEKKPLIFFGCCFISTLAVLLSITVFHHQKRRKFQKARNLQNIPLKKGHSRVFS
Chain of FGF19 (fibroblast growth factor 19, reference or wild type sequence) (O95750 23-216 limits assumed): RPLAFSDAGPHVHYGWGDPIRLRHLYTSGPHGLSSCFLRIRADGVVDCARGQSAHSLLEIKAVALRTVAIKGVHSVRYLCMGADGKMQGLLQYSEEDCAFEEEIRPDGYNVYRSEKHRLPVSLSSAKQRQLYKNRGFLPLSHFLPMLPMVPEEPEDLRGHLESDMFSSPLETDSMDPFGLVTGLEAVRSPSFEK

EC50 (pM), ELK luciferase reporter assay in L6 cells: 52.5 pM
Emax (fold potentiation), ELK luciferase reporter assay in L6 cells (fold potentiation): 1.82
Substance: FGF19 (fibroblast growth factor 19, reference or wild type sequence) (from UniProt O95750 23-216) (ligand)
